No end group written: not given here.
T1: Cyclooxygenase-1 from ram seminal vesicle (ram (sheep), UniProt P05979 25-600)
T1 sequence (looked up): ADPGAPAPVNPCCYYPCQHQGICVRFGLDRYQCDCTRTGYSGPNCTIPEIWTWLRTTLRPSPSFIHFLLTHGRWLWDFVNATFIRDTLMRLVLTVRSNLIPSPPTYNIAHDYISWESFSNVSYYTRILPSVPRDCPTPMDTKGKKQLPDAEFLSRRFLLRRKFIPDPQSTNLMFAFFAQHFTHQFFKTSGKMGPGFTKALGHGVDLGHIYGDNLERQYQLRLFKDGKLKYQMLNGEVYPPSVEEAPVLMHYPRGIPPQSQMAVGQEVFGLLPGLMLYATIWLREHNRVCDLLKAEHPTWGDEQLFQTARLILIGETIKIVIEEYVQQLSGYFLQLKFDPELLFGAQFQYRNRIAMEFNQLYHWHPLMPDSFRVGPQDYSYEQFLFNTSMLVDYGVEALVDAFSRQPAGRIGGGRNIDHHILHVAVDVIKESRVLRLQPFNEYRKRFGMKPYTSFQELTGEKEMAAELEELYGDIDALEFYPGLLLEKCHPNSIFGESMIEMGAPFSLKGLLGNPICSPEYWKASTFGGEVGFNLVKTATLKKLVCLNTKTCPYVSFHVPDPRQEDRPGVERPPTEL

T2: Cyclooxygenase-2 from sheep placenta (sheep, UniProt P79208 17-603)
T2 sequence (looked up): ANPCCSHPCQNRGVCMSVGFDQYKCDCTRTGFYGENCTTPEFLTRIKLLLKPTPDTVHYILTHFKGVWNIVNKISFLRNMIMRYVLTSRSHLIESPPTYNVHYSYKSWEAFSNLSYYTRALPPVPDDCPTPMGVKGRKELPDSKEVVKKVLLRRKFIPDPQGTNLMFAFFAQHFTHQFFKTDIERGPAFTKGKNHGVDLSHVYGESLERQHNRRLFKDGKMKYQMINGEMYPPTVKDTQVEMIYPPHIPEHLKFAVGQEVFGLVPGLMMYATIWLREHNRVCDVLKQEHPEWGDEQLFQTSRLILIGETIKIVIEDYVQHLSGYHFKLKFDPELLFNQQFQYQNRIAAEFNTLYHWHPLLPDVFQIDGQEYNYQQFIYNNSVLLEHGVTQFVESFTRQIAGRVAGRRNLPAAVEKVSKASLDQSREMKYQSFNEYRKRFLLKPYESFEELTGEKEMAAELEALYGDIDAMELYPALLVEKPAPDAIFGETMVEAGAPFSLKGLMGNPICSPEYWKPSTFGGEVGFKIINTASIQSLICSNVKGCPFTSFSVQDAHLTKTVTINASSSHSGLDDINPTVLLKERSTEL

T3: Interleukin-1α receptor on mouse Swiss/3T3 cells (mouse, UniProt P13504 20-576)
T3 construct: whole, on cells; also called Interleukin-1α (assay target)
T3 sequence (looked up): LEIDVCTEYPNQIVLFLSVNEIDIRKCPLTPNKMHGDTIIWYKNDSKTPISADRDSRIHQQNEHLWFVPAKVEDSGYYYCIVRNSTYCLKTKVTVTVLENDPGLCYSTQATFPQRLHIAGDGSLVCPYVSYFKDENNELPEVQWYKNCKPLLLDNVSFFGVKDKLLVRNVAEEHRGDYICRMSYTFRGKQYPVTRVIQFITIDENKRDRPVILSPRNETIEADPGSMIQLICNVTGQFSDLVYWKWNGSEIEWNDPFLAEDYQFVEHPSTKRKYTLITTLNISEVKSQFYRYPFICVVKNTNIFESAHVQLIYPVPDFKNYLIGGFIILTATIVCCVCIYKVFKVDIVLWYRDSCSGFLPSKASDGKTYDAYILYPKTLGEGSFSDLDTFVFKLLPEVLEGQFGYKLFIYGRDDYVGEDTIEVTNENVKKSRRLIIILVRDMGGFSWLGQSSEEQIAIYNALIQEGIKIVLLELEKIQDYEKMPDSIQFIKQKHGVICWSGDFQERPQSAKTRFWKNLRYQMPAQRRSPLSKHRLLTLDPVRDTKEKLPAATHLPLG


Columns and labels:
[1] = target: Protein kinase C - γ, rabbit brain (recombinant) (rabbit, UniProt P10829 1-697, limits assumed); experiment: cell-based or functional assay
[2] = target: T1, Cyclooxygenase-1 from ram seminal …; experiment: cell-based or functional assay
[3] = target: Ca++/calmodulin dependent protein kinase II from rat brain (rat); experiment: cell-based or functional assay
[4] = target: Protein kinase C, non-selective, from rat brain (rat); experiment: cell-based or functional assay
[5] = target: Collagenase IV from human U937 cells (human, UniProt P14780 107-707); experiment: cell-based or functional assay
Chain of Collagenase IV from human U937 cells (P14780 107-707): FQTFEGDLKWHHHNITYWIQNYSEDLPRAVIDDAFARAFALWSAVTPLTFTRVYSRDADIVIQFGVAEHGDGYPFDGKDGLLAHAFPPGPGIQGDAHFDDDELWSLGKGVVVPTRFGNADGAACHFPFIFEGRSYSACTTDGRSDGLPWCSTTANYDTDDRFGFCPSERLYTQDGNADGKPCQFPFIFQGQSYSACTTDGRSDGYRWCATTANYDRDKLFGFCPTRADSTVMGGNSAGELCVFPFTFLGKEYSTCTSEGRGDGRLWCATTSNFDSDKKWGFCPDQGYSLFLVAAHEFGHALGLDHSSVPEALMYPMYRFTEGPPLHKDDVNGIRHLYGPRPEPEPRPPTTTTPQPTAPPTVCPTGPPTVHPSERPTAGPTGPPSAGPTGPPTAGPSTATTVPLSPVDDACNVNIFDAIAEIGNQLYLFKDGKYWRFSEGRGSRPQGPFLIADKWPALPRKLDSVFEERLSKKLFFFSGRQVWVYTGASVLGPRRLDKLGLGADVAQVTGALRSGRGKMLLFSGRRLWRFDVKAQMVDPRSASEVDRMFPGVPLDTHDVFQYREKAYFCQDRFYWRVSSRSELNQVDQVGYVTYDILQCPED

[6] = target: Phospholipase A2 from porcine pancreas (porcine, UniProt P00592 23-146); experiment: cell-based or functional assay
Chain of Phospholipase A2 from porcine pancreas (P00592 23-146): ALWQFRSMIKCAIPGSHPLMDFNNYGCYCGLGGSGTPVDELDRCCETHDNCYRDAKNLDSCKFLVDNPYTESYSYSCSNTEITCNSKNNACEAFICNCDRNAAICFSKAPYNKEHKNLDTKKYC

[7] = target: T2, Cyclooxygenase-2 from sheep placenta; experiment: cell-based or functional assay
[8] = target: Galanin receptor of rat ileum (rat); experiment: cell-based or functional assay
[9] = target: T3, Interleukin-1α receptor on mouse …; experiment: historical value of the assay laboratory, saturation analysis of [125I]IL-1 alpha on mouse Swiss/3T3 cells

Binder | % Inhibition of enzyme activity, peptide 100.0 µM [1] [%] | % Inhibition of enzyme activity, peptide 300.0 µM [2] [%] | % Inhibition of enzyme activity, peptide 100.0 µM [3] [%] | % Inhibition of enzyme activity, peptide 300.0 µM [4] [%] | % Inhibition of enzyme activity, peptide 100.0 µM [5] [%] | % Inhibition of enzyme activity, peptide 300.0 µM [6] [%] | % Inhibition of enzyme activity, peptide 300.0 µM [7] [%] | Agonism (contraction of rat ileum relative to 0.1 µM galanin), peptide 30 µM [8] [%] | Kd [9] [nM]
LPPSR (also: at least one D-amino acid, position not given here) | -6 | 2 | 12 | -6 | 2 | -11 | 2 | 0 | 
Interleukin-1α (ligand, UniProt P01583 113-271, looked up, 125I label on the radioligand, also called IL-1 alpha; [125I]IL-1 alpha) SAPFSFLSNVKYNFMRIIKYEFILNDALNQSIIRANDQYLTAAALHNLDEAVKFDMGAYKSSKDDAKITVILRISKTQLYVTAQDEDQPVLLKEMPEIPKTITGSETNLLFFWETHGTKNYFTSVAHPNLFIATKQDYWVCLAGGPPSITDFQILENQA |  |  |  |  |  |  |  |  | 0.18

From patent US6767890 (COASTSIDE BIO RESOURCES, dated 2004)
